Data: patent publication US20220096608
Changes are numbered by the printed parent chain. Numbers in names are those of the source.

T1: α2-antiplasmin, P08697
T1 chain: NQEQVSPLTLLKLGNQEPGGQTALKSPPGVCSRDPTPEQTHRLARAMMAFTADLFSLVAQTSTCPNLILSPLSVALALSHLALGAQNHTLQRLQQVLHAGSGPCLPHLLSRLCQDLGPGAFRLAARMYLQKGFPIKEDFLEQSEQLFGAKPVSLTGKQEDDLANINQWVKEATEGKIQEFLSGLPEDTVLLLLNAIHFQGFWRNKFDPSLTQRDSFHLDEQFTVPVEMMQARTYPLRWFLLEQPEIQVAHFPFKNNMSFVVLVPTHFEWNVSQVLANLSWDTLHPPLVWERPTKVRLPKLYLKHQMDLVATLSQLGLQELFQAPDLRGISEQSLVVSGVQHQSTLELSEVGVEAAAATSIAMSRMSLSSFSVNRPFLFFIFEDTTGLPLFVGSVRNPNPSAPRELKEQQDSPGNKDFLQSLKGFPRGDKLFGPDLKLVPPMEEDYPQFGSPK

B1: Mono-PEGylated Micro-plasmin variant (40 kDa PEG) V82C Catalytic Domain (SEQ ID NO. 4) (protein)
chain: APSFDCGKPQVEPKKCPGRVVGGCVAHPHSWPWQVSLRTRFGMHFCGGTLISPEWVLTAAHCLEKSPRPSSYKVILGAHQECNLEPHVQEIEVSRLFLEPTRKDIALLKLSSPAVITDKVIPACLPSPNYVVADRTECFITGWGETQGTFGAGLLKEAQLPVIENKVCNRYEFLNGRVQSTELCAGHLAGGTDSCQGDSGGPLVCFEKDKYILQGVTSWGLGCARPNKPGVYVRVSRFVTWIEGVMRNN
B2: Mono-PEGylated Micro-plasmin variant (40 kDa PEG) H87C Catalytic Domain (SEQ ID NO. 9) (protein)
chain: B1 chain with C82V, H87C
B3: Mono-PEGylated Micro-plasmin variant (20 kDa PEG) V82C Catalytic Domain (SEQ ID NO. 4) (protein)
chain: B1 chain
B4: Wild-type Micro-plasmin (SEQ ID NO. 2) (protein)
chain: B1 chain with C82V
B5: Bi-PEGylated Micro-plasmin variant (20 kDa-20 kDa PEG) V82C-H87C Catalytic Domain (SEQ ID NO. 12) (protein)
chain: B1 chain with H87C
B6: Mono-PEGylated Micro-plasmin variant (20 kDa PEG) H87C Catalytic Domain (SEQ ID NO. 9) (protein)
chain: B1 chain with C82V, H87C

Molecular target: T1, α2-antiplasmin, P08697

| Protein | In vitro Half-life (of inactivation by α2-antiplasmin) [min] |
| --- | --- |
| B1 | >7 |
| B2 | >7 |
| B3 | 6 to 7 |
| B4 | >5 |
| B5 | >10 |
| B6 | 6 to 7 |
